Measurements as given in patent publication US20200407442A1 (WUXI BIOLOGICS IRELAND, published 2020).
Numbering of substitutions follows the chain as printed.

Columns and labels:
Assay in all cases: ELISA, antibody coated, LAG-3 D12.mFc mutant in supernatant, normalised to control mutants
[1] = target: T1, human LAG-3-ECD.D12.mFc mutant D131A (human, UniProt P18627 37-252)
T1 construct: Alanine scanning mutant; construct limits as for m26
T1 chain: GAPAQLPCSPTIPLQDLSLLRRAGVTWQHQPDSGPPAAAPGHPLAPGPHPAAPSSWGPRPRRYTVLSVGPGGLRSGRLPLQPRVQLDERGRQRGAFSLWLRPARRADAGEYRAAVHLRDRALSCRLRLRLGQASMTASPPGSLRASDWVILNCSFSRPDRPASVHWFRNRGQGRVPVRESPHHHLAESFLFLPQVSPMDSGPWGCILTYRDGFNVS
In short: (§1)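 Antibody 1.53.3-uAb-IgG4k or 3.40.19-uAb-hIgG4L coated at 2 μg/mL, then exposed to supernatant containing quantified LAG-3 D12.mFc mutants. Detection with HRP anti-mFc (1:5000). Absorbance normalized to mean of control mutants; binding fold change <0.75 set as epitope cutoff.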

[2] = target: T2, human LAG-3-ECD.D12.mFc mutant R137A (human, UniProt P18627 37-252)
T2 construct: Alanine scanning mutant; construct limits as for m26
T2 chain: T1 chain with A95D, R101A
In short: as §1

[3] = target: T3, human LAG-3-ECD.D12.mFc mutant A40G (human, UniProt P18627 37-252)
T3 construct: construct limits as for m26
T3 chain: T1 chain with A4G, A95D
In short: as §1

[4] = target: T4, human LAG-3-ECD.D12.mFc mutant L136A (human, UniProt P18627 37-252)
T4 construct: Alanine scanning mutant; construct limits as for m26
T4 chain: T1 chain with A95D, L100A
In short: as §1

[5] = target: T5, human LAG-3-ECD.D12.mFc mutant P138A (human, UniProt P18627 37-252)
T5 construct: Alanine scanning mutant; construct limits as for m26
T5 chain: T1 chain with A95D, P102A
In short: as §1

[6] = target: T6, human LAG-3-ECD.D12.mFc mutant V151A (human, UniProt P18627 37-252)
T6 construct: Alanine scanning mutant; construct limits as for m26
T6 chain: T1 chain with A95D, V115A
In short: as §1

[7] = target: T7, human LAG-3-ECD.D12.mFc mutant T100A (human, UniProt P18627 37-252)
T7 construct: Alanine scanning mutant; construct limits as for m26
T7 chain: T1 chain with T64A, A95D
In short: as §1

[8] = target: T8, human LAG-3-ECD.D12.mFc mutant P72A (human, UniProt P18627 37-252)
T8 construct: Alanine scanning mutant; construct limits as for m26
T8 chain: T1 chain with P36A, A95D
In short: as §1

B1: 3.40.19-uAb-IgG4L (antibody, V domains shown)
VH: QLQLQESGPGLVKPSETLSLTCTVSGDSISSTSYYWGWIRQPPGKGLEWIGSFYYSGSTYYNPSLKSRVTISVDTSKNQFSLKLNSVTAADTAVYYCARMQLWSYDVDVWGQGTTVTVSS
VL: QSALTQPASVSGSPGQSITISCTGTSSDVGGYDYVAWYQQHPGKVPKLMIYDVSERPSGVSNRFSGSKSGNTASLTISGLQAEDEADYYCSSYTSTTTLVVFGGGTKLSVL
notes: Fully human antibody from OMT rats; IgG4 lambda by its name; also called 3.40.19-uAb-hIgG4L
- Fold Change [1]: 0.045
- Fold Change [2]: 0.101
- Fold Change [3]: 0.608
- Fold Change [4]: 0.043
- Fold Change [5]: 0.106
- Fold Change [6]: 0.043
- Fold Change [7]: 0.738

B2: 1.53.3-uAb-IgG4k (antibody, V domains shown)
VH: QVQLQQWGAGLLKPSETLSLTCGVYGGSFSGYYWSWIRQPPGMGLEWIGEINHRGNTNYNPSLKSRVTISEDTSKNQFSLRLSSVTAADTAVYFCTRGEDYSDYDYYGDFWGQGTLVTVSS
VL: EIVLTQSPATLSLSQGERATLSCRASQSISSYLAWYQQKPGQAPRLLIYAASNRATGIPARFSGSGSGTDFTLTISSLEPEDFAIYYCQQRSNWPLTFGGGTKVEIK
notes: Fully human antibody from OMT rats; IgG4 kappa by its name
- Fold Change [8]: 0.743
